The assay deals with mouse TIGIT-His (SEQ ID NO: 3) (mouse) (UniProt P86176). As to the kind of experiment: BLI (Octet QKe), SEC1 on AMC sensor, mouse TIGIT-His 33 to 1.22 nM, 1:1 global fit.

What is called Kd is the concentration at which binding is half-saturated. A low value points to higher affinity. Usually koff stands for a measure of how fast the partners let go of each other. Higher therefore signals a short-lived complex. The term kon denotes the second-order rate constant of association. Higher therefore signals fast association.

Sequence of mouse TIGIT-His (SEQ ID NO: 3) (mouse) (P86176 other isoform, or with tags, fused parts or gaps limits assumed, form in doubt): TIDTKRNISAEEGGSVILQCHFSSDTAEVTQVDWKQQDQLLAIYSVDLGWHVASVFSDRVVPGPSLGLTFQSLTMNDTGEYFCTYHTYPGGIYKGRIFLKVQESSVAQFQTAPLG

B1: SEC1 mouse IgG2a N297A (antibody, V domains shown)
VH: EVQLVESGGGLTQPGKSLKLSCEASGFTFSSFTMHWVRQSPGKGLEWVAFIRSGSGIVFYADAVRGRFTISRDNAKNLLFLQMNDLKSEDTAMYYCARRPLGHNTFDSWGQGTLVTVSS
VL: DIVMTQSPSSLAVSPGEKVTMTCKSSQSLYYSGVKENLLAWYQQKPGQSPKLLIYYASIRFTGVPDRFTGSGSGTDYTLTITSVQAEDMGQYFCQQGINNPLTFGDGTKLEIKR
In turn, B1 gave a Kd of 0.32 nM, a koff of 0.0006 s⁻¹ and a kon of 1.9e+06 M⁻¹ s⁻¹.

For the origin of these results see patent US20170165366A1.
